In assay [1] the target is T1, human 14-3-3 epsilon isoform 1 (human, UniProt P62258 1-255).
T1 construct: Endogenous protein of H23 human lung cancer cells; Mass spectrometry of the about 27 kDa band identified it as 14-3-3 epsilon, 255 amino acids; also called 14-3-3 protein epsilon; YWHAE
T1 sequence: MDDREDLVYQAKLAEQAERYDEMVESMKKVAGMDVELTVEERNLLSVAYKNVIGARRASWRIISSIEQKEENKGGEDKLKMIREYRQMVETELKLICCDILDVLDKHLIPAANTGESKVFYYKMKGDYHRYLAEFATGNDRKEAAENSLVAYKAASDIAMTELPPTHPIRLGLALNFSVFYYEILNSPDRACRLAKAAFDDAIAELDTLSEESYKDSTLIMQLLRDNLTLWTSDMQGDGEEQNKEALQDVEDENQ
Briefly: flow cytometry on H23 cells. On the procedure:
H23 cells were treated with radiation, 3Gy×3 or 0Gy sham. Cells were then treated with blocking buffer followed by the addition of the 7D4 anti-14-3-3 epsilon monoclonal antibody. Cells were then washed and stained with the secondary antibody conjugated to the fluorescent marker Alexa Fluor 488. Commercial rabbit anti-human 14-3-3 epsilon antibody was used as positive control. Negative controls included 7D4 without secondary antibody and normal mouse IgG with secondary antibody. Shown in FIG. 5 is the percentage of cells staining positive with the anti-14-3-3 antibodies as measured by flow cytometry (FACS).
(In general: A flow cytometer gives signals particle by particle.)

The target of assay [2] is T2, peptide comprising amino acids 177-194 of 14-3-3 epsilon isoform 1 (human).
T2 construct: Synthetic 18-mer (Sigma), coated on the ELISA plate
T2 peptide: FSVFYYEILNSPDRACRL
In words: ELISA, peptide coated, 7D4 at 5 µg/ml. On the procedure:
(§1) Two batches of purified anti 14-3-3 epsilon monoclonal antibody 7D4 were used for testing all 31 peptides by ELISA. Three concentrations of each peptide had been used for coating ELISA plate at 30, 15, 10 μg/mL, 50 μl/each well were reacted against diluted purified antibodies at same concentration in all assay. Similar results were obtained for each peptide concentration coated on the ELISA plate.
(§2) Human 14-3-3 Protein epsilon and its isoform SV whole amino acid sequences were obtained through UniProtKB/Swiss-Prot. The Taxonomic identifier 9606 (NCBI) organism is Homosapiens (Human), Gene name is YWHAE. Peptide designed from whole sequences of 14-3-3 protein epsilon and its isoform 14-3-3 protein epsilon SV. The designed peptides contain 18AA from N terminal to C terminal and had 2AA overlapped in each peptide. A total of 31 peptides synthesized by Sigma. The synthesized peptide was prepared in DMSO and then further diluted in PBS for coating an ELISA plate. 30 μg/ml and 10 μg/ml of peptides in PBS were coated on ELISA plates, 50 μL/well. The plates incubated overnight at 4° C., were washed with 0.1% Tween20 PBS and blocked with 3% BSA in same buffer for 1 hour. […] After washing again, substrate ABTS was added to each well to monitor color change by reading at 405 nm in an ELISA reader (Bio-Tek Instrument Inc.). […]
(In an ELISA, binding on a coated surface is turned into a signal by an enzyme label.)

Assay [3] addresses T3, peptide comprising amino acids 145-162 of 14-3-3 epsilon SV (human).
T3 construct: Synthetic 18-mer (Sigma), coated on the ELISA plate
T3 peptide: HPIRLGLALNFSVFYYEI
In words: ELISA, peptide coated, 7D4 at 5 µg/ml. The procedure:
as §1, §2

The target in assay [4] is T1, human 14-3-3 epsilon isoform 1. In words: FMAT on H23 cells, hybridoma supernatant.

B1: anti-14-3-3 epsilon mouse monoclonal antibody 7D4 (antibody, V domains shown)
VH: QVQLQQSGAELMKPGASVKISCKATGYTFSSYWIEWVKQRPGHGLEWIGEILPGSGSTNYNEKFKGKATFTADTSSNTAYMQLSSLTSEDSAVYYCARSVWLRRDFAYWGQGTLVTVSA
VL: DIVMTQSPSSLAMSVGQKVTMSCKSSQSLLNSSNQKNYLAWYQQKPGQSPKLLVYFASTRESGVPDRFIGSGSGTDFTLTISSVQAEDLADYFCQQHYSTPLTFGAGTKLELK
notes: also called McAb 7D4; 7D4 mAb
Regarding B1, the “fold increase in the percentage of cells staining positive after 3Gy×3” value in assay [1] came to 20 fold. Further, the binding result in assay [2] and in assay [3] was “binds” in each case. Besides, in assay [4], the “fold increase in binding on 3Gy×3 treated against sham 0Gy treated tumor cells” value was 6 fold.

(Values after patent publication US20160194388A1 (WASHINGTON UNIVERSITY, published 2016).)
